One molecule from patent publication US20040152160A1 (UNIVERSITY OF SOUTH FLORIDA, published 2004) can be followed below.

The assay addresses α7-2-nAChR (homomeric receptor of the rat α7-2 splice variant subunit expressed in Xenopus oocytes) (rat, UniProt Q05941 28-502). The assay can be described thus: summary statement; no assay given at this place.

B1: α-bungarotoxin (ligand)
chain: IVCHTTATSPISAVTCPPGENLCYRKMWCDAFCSSRGKVVELGCAATCPSKKPYEEVTCCSTDKCNPHPKQRPG
With B1, the binding result is reported as “binds”.
